Results as given in US20250197451A1 (CAPITAL MEDICAL UNIVERSITY SCHOOL OF STOMATOLOGY, published 2025).

Molecular target: T1, biotin-labelled EZH2 protein (UniProt Q15910 1-746, limits assumed, biotin label (EZ-link NHS-PEO4-Biotinylation kit))
T1 construct: Probe in solution (1 ug/ml) on the KDM2B peptide microarray; also called NHS-PEO4-Biotinylation-labelled EZH2 protein; recombinant protein
Test: KDM2B peptide array probed with biotin-EZH2 1 ug/ml, SA-HRP/ECL; Remark: spike
Description: (§1) After blocking, the polypeptide microarray was incubated with biotin-labeled target protein for hybridization, visualized with the chemical chromogenic substrate and imaged using a Chempchemi digital imager. The image of colored polypeptide microarray was analyzed for the optical density of the colored points. Particularly, the optical density of each colored point was calculated using the optical density of the respective surrounding background as a reference for background correction. The highest optical density value of the colored point on membrane was set to 100%, and the optical density value of the remaining colored points was converted into percentages relative to the highest value. The points with an optical density percentage of more than 30% on the polypeptide membrane and also with an optical density percentage of less than 30% on the negative membrane were defined as positive colored points.
(§2) For the hybridization experiment, a solution of NHS-PEO4-Biotinylation-labelled EZH2 protein (1 μg/ml) was used for the hybridization of the polypeptide microarray. Streptavidin-HRP was used to amplify the reaction signal according to the experimental procedure and conditions described above, and the time of color development was 5 minutes.

T1 sequence (Q15910 whole entry): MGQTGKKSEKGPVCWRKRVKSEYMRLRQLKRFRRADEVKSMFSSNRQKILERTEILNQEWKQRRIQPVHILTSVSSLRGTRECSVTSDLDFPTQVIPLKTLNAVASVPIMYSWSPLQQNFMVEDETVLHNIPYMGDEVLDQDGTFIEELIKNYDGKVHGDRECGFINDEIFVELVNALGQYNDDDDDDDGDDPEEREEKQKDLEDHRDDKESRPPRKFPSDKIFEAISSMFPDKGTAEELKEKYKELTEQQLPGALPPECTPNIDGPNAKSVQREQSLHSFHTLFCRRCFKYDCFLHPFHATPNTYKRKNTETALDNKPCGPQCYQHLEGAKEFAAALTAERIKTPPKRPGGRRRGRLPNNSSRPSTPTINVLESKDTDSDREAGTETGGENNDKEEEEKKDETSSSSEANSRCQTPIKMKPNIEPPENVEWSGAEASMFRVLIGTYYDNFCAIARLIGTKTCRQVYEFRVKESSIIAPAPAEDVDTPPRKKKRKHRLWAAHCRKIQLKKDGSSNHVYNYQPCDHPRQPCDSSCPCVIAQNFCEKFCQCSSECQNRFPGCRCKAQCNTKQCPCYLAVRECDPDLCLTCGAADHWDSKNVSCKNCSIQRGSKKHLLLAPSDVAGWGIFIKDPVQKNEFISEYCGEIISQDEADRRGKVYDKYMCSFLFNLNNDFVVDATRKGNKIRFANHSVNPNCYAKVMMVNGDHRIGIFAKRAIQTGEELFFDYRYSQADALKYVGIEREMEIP

**Q.** How did the “Intensity (%)” value turn out when SNLPGSLLKEQKMNR [peptide 149] was run?
**A.** The value was 0%.

**Q.** EDTVEEEEGKFNLML [peptide 135] was tested. Which “Intensity (%)” value did it give?
**A.** The value was 0%.

**Q.** For VYTPVDSLVFGGNIL [peptide 64], which “Intensity (%)” value is on record?
**A.** The value was 0%.

**Q.** How did the “Intensity (%)” value turn out when DDVHLRKKRKYEKPQ [peptide 160] was run?
**A.** The value was 0%.

**Q.** For DSLVFGGNILHSFNV [peptide 65], which “Intensity (%)” value is on record?
**A.** The value was 0%.

**Q.** How did the “Intensity (%)” value turn out when SLLKEQKMNRDNKEG [peptide 150] was run?
**A.** Its value is 0%.

**Q.** Which “Intensity (%)” value does the source give for RRSECEEAPRRRSDE [peptide 154] here?
**A.** Its value is 0%.

Molecular target: T1, biotin-labelled EZH2 protein
Test: KDM2B peptide array probed with biotin-EZH2 1 ug/ml, SA-HRP/ECL; Remark: noise
Description: as §1, §2

**Q.** How did the “Intensity (%)” value turn out when NAIAEMKYPKVKKYC [peptide 44] was run?
**A.** Its value is 0%.

**Q.** How did the “Intensity (%)” value turn out when LSFFKRCGNICHIDL [peptide 258] was run?
**A.** Its value is 0.72%.

**Q.** Which “Intensity (%)” value does the source give for ESEESVKSTTLAVDY [peptide 96] here?
**A.** The value was 0%.

**Q.** EFESATQRPIDRQRY [peptide 8] was tested. Which “Intensity (%)” value did it give?
**A.** Its value is 0%.

**Q.** IIRRQPVSLDLSWTN [peptide 225] was tested. Which “Intensity (%)” value did it give?
**A.** Its value is 0%.

**Q.** For FVRYYETPEAQRDKL [peptide 32], which “Intensity (%)” value is on record?
**A.** Its value is 0%.

**Q.** How did the “Intensity (%)” value turn out when VTDQCLSFFKRCGNI [peptide 257] was run?
**A.** Its value is 0.23%.

**Q.** With DGSTSPTSTPSEDQE [peptide 89] as the binder, how does the “Intensity (%)” value read?
**A.** The value was 0%.

**Q.** Which “Intensity (%)” value does the source give for KSITPLMLSGIIRRQ [peptide 223] here?
**A.** Its value is 0%.

**Q.** Which “Intensity (%)” value does the source give for GGTSVWYHVFRGGKI [peptide 50] here?
**A.** The value was 0%.

**Q.** Which “Intensity (%)” value does the source give for ETPEAQRDKLYNVIS [peptide 33] here?
**A.** The value was 0%.

**Q.** How did the “Intensity (%)” value turn out when LSWLINRLPGLRDLV [peptide 229] was run?
**A.** Its value is 0%.

**Q.** With TDASLRLIIRHMPLL [peptide 246] as the binder, how does the “Intensity (%)” value read?
**A.** The value was 0%.

**Q.** How did the “Intensity (%)” value turn out when TQEYQRESMLIDAPR [peptide 77] was run?
**A.** Its value is 0%.

**Q.** How did the “Intensity (%)” value turn out when PKTPTGSPATEVSAK [peptide 99] was run?
**A.** The value was 0%.

**Q.** With NRPGQMDNRSKLRNI [peptide 241] as the binder, how does the “Intensity (%)” value read?
**A.** Its value is 0%.

**Q.** Which “Intensity (%)” value does the source give for LSWTNISKKQLSWLI [peptide 227] here?
**A.** The value was 0%.

**Q.** For VTKEGCEQFIAEMSV [peptide 262], which “Intensity (%)” value is on record?
**A.** Its value is 0%.

**Q.** With ALGKKPKAPALRFLK [peptide 92] as the binder, how does the “Intensity (%)” value read?
**A.** The value was 0%.

**Q.** Which “Intensity (%)” value does the source give for PTLHNLALYEEWVLS [peptide 54] here?
**A.** Its value is 0%.

**Q.** With EMCWYVLERYVYCVT [peptide 73] as the binder, how does the “Intensity (%)” value read?
**A.** Its value is 0.19%.

**Q.** VQFGQVEEKLLQKLS [peptide 266] was tested. Which “Intensity (%)” value did it give?
**A.** Its value is 0%.

**Q.** Which “Intensity (%)” value does the source give for CEQFIAEMSVSVQFG [peptide 263] here?
**A.** Its value is 0.05%.

**Q.** For PTSTPSEDQEALGKK [peptide 90], which “Intensity (%)” value is on record?
**A.** The value was 0.19%.

**Q.** DRTRVQPKFRYPFYY [peptide 70] was tested. Which “Intensity (%)” value did it give?
**A.** Its value is 0.02%.

**Q.** How did the “Intensity (%)” value turn out when SEDQEALGKKPKAPA [peptide 91] was run?
**A.** The value was 0%.

**Q.** For ISKKQLSWLINRLPG [peptide 228], which “Intensity (%)” value is on record?
**A.** The value was 0%.

Molecular target: T1, biotin-labelled EZH2 protein
Test: KDM2B peptide array probed with biotin-EZH2 1 ug/ml, SA-HRP/ECL;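 for Intensity (%): Background-corrected optical density of each spot on the membrane, given as percent of the brightest spot (100%), color developed for 5 minutes; 100% is the highest background-corrected spot optical density on the membrane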

**Q.** Which “Intensity (%)” value does the source give for DQQPQEEEEKDEEGE [peptide 84] here?
**A.** Its value is 0%.

**Q.** For EEEACDQQPQEEEEK [peptide 83], which “Intensity (%)” value is on record?
**A.** The value was 0%.

Molecular target: T1, biotin-labelled EZH2 protein
Test: as above
Remark: another data set of the same source
Description: as §1, §2

**Q.** Does DQQPQEEEEKDEEGE [peptide 84] bind?
**A.** Result: no binding

**Q.** Does EEEACDQQPQEEEEK [peptide 83] bind?
**A.** Result: no binding
